B1: 990 (protein, listed as Streptomyces bingchenggensis)
chain: MISRRNLLGTATAAGPALTGLTALAATTGKAEAAEPGYGGLRVEKTTVEYADRPLGLDAPHPRLSWQLGSDRRNQSQSAYQLRVATSPGRIGAPDVWDSGKVSSHQSVLVPYDGPKLRARTRYHWAVRVWDGQGRPSPWSEPTWWETGLGTEDEGAARWVAAPDTVTRGPDLAKADWVWYPEGDPASSAPAGTRYFRGSLDVSGSVRLARLALVADDGFTAWVNGTEIGGRAPVQENWRHPVVVDVTALLREGANTIAVAAVNASSSPAGLLGVLELTDTDGVRSLTTSAAWKATDTEPSGDWHLPAYDDGGWAAAKVLAPWGGGPWGRVRAAQRPALVRRDFRLAAKPVARARLYSTALGLYEAEINGHRVGRDQLAPGWTDYRKRVQYQTYDVTDLLRHGANAIGVILASGWYSGSVAWFGQELYGERPALRAELEVTYADGSTDRVTADTHWRCATGPILTADLMAGEEYDARLEVSGWSSPAFDDSLWQSVDVVPADTTSAVSVVAQTDAPVRVARELAAVRVTEPKPGVYVFDLGQNMVGSVRLRVRGEAGRTVRLRHAEVLDKDGMLYTANLRTAQATDSYTLKGSGTETFEPRFTFHGFRYVEVTGYPGTPDTKSVTGRVMHTGAPFTMSFTTDVPMLDQLHRNITWGQRGNFLSVPTDTPARDERLGWTGDINVFSATAAYTMESARFLAKWLRDLRDGQSDAGAFPDVAPRIGNLGEGTAGWGDAGVTVPWNLYQAYGDRQILADNFPAMRAWITYLEQHSSGCLRPAEGYGDWLNVADETPKDVIATAYFAHSTQLVAKAARVLGHDPAPYDTLAAKVREAFNRAYVSADGTVKGNTQTAYVLALSMDLLPDSARTPAAERLVELIRSKDRHLSTGFLGTPRLLPTLTATGHTDVAYQLLEQRTFPSWGYQIDRGSTTMWERWDSLRPDGSFQDPGMNSFNHYAYGSVGEWMYQNITGIGMGEPGFRSIVIRPRPGGDVHEANGRYDSLYGPITTRWTRANDGAFTLDVSVPVNTTAEVWLPAATSRAASGISHAGATFLRLDDGCAVYGVGSGPYRFTAP
B2: 1077 (protein, listed as Bacillus sp.)
chain: MAGRNWNASWIWGGQEESPRNEWRCFRGSFDAPASVEGPAMLHITADSRYVLFVNGEQVGRGPVRSWPKEQFYDSYDIGGQLRPGVRNTIAVLVLHFGVSNFYYLRGRGGLIAEIEADGRTLAATDAAWRTERLGGQRSNSPRMACQQGFGEVIDARELAEDWALPAFDDGGWAQARSIGPAGTAPWTSLVPRDIPFLTEEKLYPASIQSLSRVKAPKYAAALDLRNQMVPESVNHANPVSYCGYVATILTLETSGVVTLGFPTGVRGSGVWVDGVLQTEWTGVQPERYYSLNLAAGEHLVLVDITSSDHGGSSHFAIDSEAAFTLRSPAGDNGVPLATIGTFDQSEYIDHRPGRRMQTDHPDYRALPEAAPTAAALEAFASWVKPFEPSLYTEENVFGSNVWRTLAERRAVPRSVLNAILPVPEPGVLPVFEDGDCELVIDLGAERSGFIGFELEAPAGTIIDAYGVEYMREGYTQHTYGLDNTFRYICREGRQSYVSPVRRGFRYLFLTVRGNSAPVKLHEIYIRQSTYPVAEQGSFRCSDALLNATWEISRHTTRLCMEDTFVDCPSYEQVFWVGDSRNEALVNYYVFGETEIVERCLNLVPGSADETPLYLDQVPSAWSSVIPNWTFFWILACREYAAHTGNEAFAARIWPAVKHTLTHYLEHIDDSGLLNMAGWNLLDWAPIDQPNEGIVTHQNLFLVKALRDSRALAAAAGATEEADAFAARADLLAETINAVLWDEEKRAYIDCIHADGRRSDVYSMQTQVVAYLCGVAQGEREAVIEGYLSSPPPAFVQIGSPFMSFFYYEALEKAGRQTLMLDDIRRNYGQMLRYDATTCWEMYPNFAENRSNPDMLTRSHCHAWSAAPGYFLGSSILGVKRGADGWRTVDIAPQPCDLTWAEGVVPLPQGGHIAVSWEFVSAGKLKLRIEAPEDIEVNVTLPEGIEGEVTQVKYMS
B3: 1003 (protein, listed as Rahnella aquatilis)
chain: MPAVIRLTLNQESALSGVQQLPVLGWEIESRNRNVRQTAYRLQISQDQDFDNILLRGEWQESECSNNIPLTELMLTSSQHYFIRVQVRDNYGETSGWSSPAQMITGVLYPHEWLADFITAETSADKDNSHATLLRKSFVLNRAQDIQSAFIHVSALGLYELYLNGHKAGEDALTPGWTSYHNHLLYQTYDVTGHLEKGENVIGAILGAGWYKGDMGFSRHRNYYGERSALISQLVINYNDGSQEIVISDESWKGQDSAILFSEIYDGEIYDARREIPGWCTKDVSGEGWRPVSLVTHEKSTLVAQGSNTVRKMAEIKPVALITTPQGDTVIDFGQNLSGWVEFRVSGKAGDEVVLRHFEVLDADGNVYLDNLRTARQRTAYVLKGEGEEIWHPHFTWQGFRFVKVEEYPGQWDLNNFTAIVLHSAMEQTGHFACSNPQLNQLHHNILWGLKGNFVDVPTDCPQRDERLGWTGDAQIFCRTASYLMQTRNFFAKWLTDLRYDQTPEGGVPHVIPDILTGYCGKDRLLSEGGTHSASAWADAAVINPWTMYLMYGDTCVLENQYASMKGWIDFMTAHAENHIWHYKLQFGDWVALDAKEGSYFGATPNDLTCTAYYAYSTQLFAKAAKVLNRTEDYDHYHALYQAIVRRFQEAFFTPSGQLAARTQTAHILALYFNLVPDEFRQRTTDTLVELLNEHDGHLVTGFVGTPYFCHALSQNGRTKEAWNLLLKEDFPSWLYQVKAGATTVWEHWDGIKPDGSMWSADMNSFNHYAYGAVGEWLYRVAAGIEADEAQPGFKHFIIKPLTGGGLSWLDTRYQSIYGAIGVRWEVSGQTVFLNVTVPANTSATVVLTDGQSVQEADGIDFARCAEGYTAEVGSGEYRIEYRLV
B4: 992 (protein, listed as Roseburia intestinalis)
chain: MGKIYAAKTNHITNPIGFNMDSIAFSWKVKGCRGQEQKYARIVISKNKTFTDICYDTGETELDSLSTRVEFEIQPYTRYYWKVIVTTDVEEVIESDVQFFETAKMDEPWTGRWITCDSSQERHPIFSKRIEPKKEVKSARLYICGLGLYEAYFLGENKENPKKIGDEYLTPYCNNYDRWIQYQTYDITEQAERGGVLSVLLGNGWYKGRFGFNDPEREAYYGDEWKLIAEVHIEYKDGTKDVISSDETWSVTRSNLWFSNIYDGERRDDTLPPVEESPARIAKAPKGRLMERLSLPVKVQEEMKPAELIHTPAGEDVFDLGQEITGIFQLRVNEPSGTIIRIQTGEILQDGCFYNENLRTALSEYVYVSDGMEKVIIPHFTYYGYRYVKVSGVTNLSCEDFMAIVLYSDYESIGTVETGSELVNKLISNIEWGMKGNFLDVPTDCPQRDERMGWTGDTQVFSATASYLADTYAFYRKYLYDLYQEQLLAGGMVPEIVPTFGPTKCSCAWGDAACIIPWNVYLFSGDKTILENQIESMKAWVDYIRRIDGDHHGWRQVFHYGDWLALDRTGAAANSVYGATDEAYIADIYYAASAQIVAKAAEVLGLEETRQEYHKIADRQWQVVKEEYFTATGRCAVKTQTGLILALKYHLSENEELTREMLKKLLRDNKNKLNTGFVGTPLLCNVLTDHGMTDAAYRLLLNEEYPGWLHEVKLGATTVWERWNSLDESGHVSSTGMNSLNHYSYGAILEWIFRHAAGIDVMEQSPGGKVMRISPKVNSELKYVKAVYDSATGCYQCGWEILEGNKITITVTVPFGGKAEVVLPYAPECIYEDIENPLFEAVENGICHVKAGEYEVVYEASEPLKKRYSIDSTMEELLNHPDIRAFLSQMVEVDMIPDIAYGLSLRDVAKTFAGEIKPDEAQMLDKALAKF

Columns and labels:
Type in all cases: biochemical, Quillaja saponaria
[1] = Experiment 6-1: screening of rhamnosidases for derhamnosylation of saponins in treated bark extract (2%), desglucosyl-QS-17 2134 to QS-21 1988 (PAR %); details: TBE 2%, pH 7.5, 30 degC, 18 h; TIC peak area ratio percent, LCMS/MS; negative controls 2.719, 2.158
[2] = Experiment 6-1: screening of rhamnosidases for derhamnosylation of saponins in treated bark extract (2%), QS-17 2310 to QS-18 2164 (PAR %); details: TBE 2%, pH 7.5, 30 degC, 18 h; TIC peak area ratio percent, LCMS/MS; negative controls 3.061, 2.429
[3] = Experiment 6-1: specificity of rhamnosidases towards other rhamnose residues (C3 saccharide rhamnose, C28 saccharide rhamnose); details: TBE 2%, pH 7.5, 30 degC, 18 h; LCMS/MS; negative controls 0.18, 0.17
[4] = Experiment 6-3: screening of rhamnosidases for derhamnosylation of saponins in crude bark extract (80%), relative % of Left, Middle and Right Peak by UV HPLC; details: CBE 80%, pH 7.4, 30 degC, 19.5 h; for Left Peak: mainly QS-17 family, negative control 27%; for Middle Peak: mainly QS-18 and desglucosyl-QS-17 family, negative control 48%; for Right Peak: mainly QS-21 family, negative control 26%
Outline: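 Clarified lysates of expressed rhamnosidase variants were incubated with crude bark extract (pH 7.4, final 80%) at 30 degC with shaking for 19.5 h, then quenched with MeCN+2% AcOH. UV HPLC gave relative % of Left (QS-17), Middle (QS-18/desglucosyl-QS-17) and Right (QS-21) peaks.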

[5] = Experiment 6-1: screening of rhamnosidases for derhamnosylation of saponins in treated bark extract (2%), QS-17 2296 to QS-18 2150 (PAR %); details: TBE 2%, pH 7.5, 30 degC, 18 h; TIC peak area ratio percent of rhamnosylated starting saponin to derhamnosylated product, LCMS/MS; negative controls 4.876, 5.225
[6] = Experiment 6-2: screening of rhamnosidases for derhamnosylation of saponins in treated bark extract (25%), relative % of Left, Middle and Right Peak by UV HPLC; details: TBE 25%, pH 7.4, 19.5 h; for Left Peak: mainly QS-17 family, negative control 24%; for Middle Peak: mainly QS-18 and desglucosyl-QS-17 family, negative control 50%; for Right Peak: mainly QS-21 family, negative control 26%

| Molecule | Peak75 (PAR %) [1] | Peak57 (PAR %) [2] | ratio PP/QS-21 [3] | Left Peak [4] | Middle Peak [4] | Right Peak [4] | QS-17 (PAR %) [5] | Left Peak [6] | Middle Peak [6] | Right Peak [6] |
| --- | --- | --- | --- | --- | --- | --- | --- | --- | --- | --- |
| B1 | 2.151% | 0.188% | 0.21 | 25% | 47% | 28% | 5.144% | 23% | 51% | 26% |
| B2 | 2.138% | 2.532% | 0.18 | 26% | 48% | 27% | 3.964% | 23% | 51% | 26% |
| B3 | 0.000% | 0.000% | 0.19 | 27% | 47% | 26% | 0.000% | 7% | 63% | 31% |
| B4 | 0.000% | 0.000% | 0.20 | 21% | 49% | 30% | 0.000% | 7% | 62% | 31% |

— patent US20240026407A1, “MODIFICATION OF SAPONINS” (GLAXOSMITHKLINE BIOLOGICALS SA, priority 2020, published 2024)
